Sequences and labels used below:
B1: Syn7002-RbcL peptide 2, KEIKFEFDTVD (peptide)
peptide: KEIKFEFDTVD
B2: AnaCA-RbcXFLAG (other, Anabaena sp. CA)
chain: MDYKDDDDKAGMNLKQIAKDTAKTLQSYLTYQALRTVLAQLGETNPPLALWLHNFSAGKVQDGEKYIEELFLEKPDLALRIMTVREHIAEEIAEFLPEMVVTGIQQANMEKRRQHLERMTQVSLSHPSPESEQQQFSDPDWDNLAS
notes: also called FLAG-tagged AnaCA-RbcX
B3: Syn7002-RbcXFLAG (other, Synechococcus sp. PCC7002)
chain: MDYKDDDDKAGMEFKKVAKETAITLQSYLTYQAVRLISQQLSETNPGQAIWLGEFSKRHPIQESDLYLEAMMLENKELVLRILTVRENLAEGVLEFLPEMVLSQIKQSNGNHRRSLLERLTQVDSSSTDQTEPNPGESDTSEDSE
notes: Coexpressed with RbcL in E. coli and pulled down with anti-FLAG M2 beads; also called N-terminally FLAG-tagged wildtype RbcX; FLAG-tagged Syn7002-RbcX
B4: Syn7002-RbcX (other, Synechococcus sp. PCC7002, UniProt Q44177 1-134, looked up)
chain: MEFKKVAKETAITLQSYLTYQAVRLISQQLSETNPGQAIWLGEFSKRHPIQESDLYLEAMMLENKELVLRILTVRENLAEGVLEFLPEMVLSQIKQSNGNHRRSLLERLTQVDSSSTDQTEPNPGESDTSEDSE
notes: Assembly chaperone; also called RbcX of Synechococcus sp; PCC7002; non-tagged Syn7002-RbcX
B5: Syn7002-RbcL (enzyme, Synechococcus sp. PCC7002, UniProt Q44176 1-470, looked up)
chain: MQTKSAGFNAGVQDYRLTYYTPDYTPKDTDLLACFRMTPQPGVPPEECAAAVAAESSTGTWTTVWTDGLTDLDRYKGRCYNVEPVPGEDNQYFCFVAYPLDLFEEGSVTNVLTSLVGNVFGFKALRALRLEDIRFPVALIKTYQGPPHGITVERDLLNKYGRPLLGCTIKPKLGLSAKNYGRAVYECLRGGLDFTKDDENINSQPFMRWRDRFLFVQEAIEKSQAETNEVKGHYLNVTAGTCEEMLKRAEFAKEIGTPIIMHDFLTGGFTANTTLAKWCRDNGVLLHIHRAMHAVIDRQKNHGIHFRVLAKCLRLSGGDHLHSGTVVGKLEGDRAATLGFVDLMREDYVEEDRSRGVFFTQDYASLPGTMPVASGGIHVWHMPALVEIFGDDSCLQFGGGTLGHPWGNAPGATANRVALEACVQARNEGRSLAREGNDVLREAGKWSPELAAALDLWKEIKFEFDTVDTL
notes: Stood in the assays as monomers, dimers, assembly intermediates or RbcL8 core complex, depending on the experiment; also called wildtype RbcL; RbcL8
B6: AnaCA-RbcX (other, Anabaena sp. CA, UniProt Q44212 1-135, looked up)
chain: MNLKQIAKDTAKTLQSYLTYQALRTVLAQLGETNPPLALWLHNFSAGKVQDGEKYIEELFLEKPDLALRIMTVREHIAEEIAEFLPEMVVTGIQQANMEKRRQHLERMTQVSLSHPSPESEQQQFSDPDWDNLAS
notes: also called RbcX from Anabaena sp; CA

The target in the assay “AnaCA-RbcX” is B6. Description: isothermal titration calorimetry, peptide titrated into RbcX dimer at 22°C. (ITC needs no label: the signal is the heat of the interaction.)
The assay “Syn7002-RbcX” has as its target B4. The assay is described as above.
In assay [1] the target is T1, Syn7002-RbcL(F462A, F464A) (Synechococcus sp. PCC7002, UniProt Q44176 1-470).
T1 construct: also called RbcL(F462A/F464A) double mutant
The assay is described as follows: pulse-chase in vitro translation, Bis-Tris Native-PAGE, autoradiography.

For assay [2], the target named is B5. Description: co-immunoprecipitation with anti-FLAG antibody from E. coli extract.
The target of assay [3] is B5. Description: displacement of RbcL from anti-FLAG beads carrying the Syn7002-RbcL/Syn7002-RbcXFLAG complex, 15 min at room temperature, immunoblot; competitor Syn7002-RbcXFLAG. In general terms: In western blotting, separated proteins are transferred to a membrane and probed.
The target in a further assay is T2, GroEL (E. coli, UniProt P0A6F5 2-548).
T2 construct: also called E. coli GroEL; chaperonin
T2 sequence (P0A6F5 2-548 limits assumed): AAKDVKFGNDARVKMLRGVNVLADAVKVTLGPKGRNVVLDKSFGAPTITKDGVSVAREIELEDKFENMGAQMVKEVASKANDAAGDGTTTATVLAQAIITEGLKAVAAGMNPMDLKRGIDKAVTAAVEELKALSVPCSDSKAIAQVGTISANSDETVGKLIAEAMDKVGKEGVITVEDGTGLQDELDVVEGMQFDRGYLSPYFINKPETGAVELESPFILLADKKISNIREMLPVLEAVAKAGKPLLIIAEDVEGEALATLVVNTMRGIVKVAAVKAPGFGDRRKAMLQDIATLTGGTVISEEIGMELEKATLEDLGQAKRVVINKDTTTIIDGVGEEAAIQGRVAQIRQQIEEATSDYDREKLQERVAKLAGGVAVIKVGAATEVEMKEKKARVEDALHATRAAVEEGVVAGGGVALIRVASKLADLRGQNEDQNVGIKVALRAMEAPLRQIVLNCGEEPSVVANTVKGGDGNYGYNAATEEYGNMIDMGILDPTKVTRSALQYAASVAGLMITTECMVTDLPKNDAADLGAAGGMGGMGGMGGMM
The assay is described as follows: in vitro translation, Native-PAGE, autoradiography.

The target of assay [4] is T1, Syn7002-RbcL(F462A, F464A). Description: coexpression in E. coli, Native-PAGE and immunoblot.
The target of a further assay is Syn7002-RbcL(1-459) (Synechococcus sp. PCC7002, UniProt Q44176 1-459). The assay is described as above.
Assay [5] deals with B1. The assay is described as follows: comparison of the ITC affinities for the C-terminal RbcL peptide.

As usually defined, the Kd is the concentration at which binding is half-saturated. Read a low Kd as a tighter complex. Broadly, the IC50 is the concentration at which inhibition is half-maximal.

For B1, the Kd with AnaCA-RbcX was roughly 5 µM; with Syn7002-RbcX, roughly 160 µM.
In the case of B2, in assay [1], the binding result is given as “no binding (tested: 40 µM RbcX)”.
For B3, in the assay with Syn7002-RbcL [2], the binding result was “binds”.
Consider B4, for which, in the assay with Syn7002-RbcL [3], the IC50 was roughly 1 µM.
In the case of B5, in the assay with GroEL, the binding result was “binds”.
Turning to EIKFEFD (also called peptide EIKFEFD) [Syn7002-RbcL peptide 1, EIKFEFD], the dissociation constant Kd was roughly 60 µM in the assay with AnaCA-RbcX and roughly 230 µM with Syn7002-RbcX.
As for B6, the binding result (in assay [4]; in the assay with Syn7002-RbcL(1-459)) was “no binding” in each case. Besides, the “fold higher affinity (against Syn7002-RbcX)” value in assay [5] was determined as 30 fold.

(Values after EP1988168A1 (Max-Planck-Gesellschaft zur Förderung der Wissenschaften …, dated 2008).)
